This is an account of results in patent US20240156980A1 (Molecular Partners, published 2024).

The target in assay [1] is T1, human EGFR on tumor cells (human, UniProt P00533 25-1210). Description: cell-based or functional assay.
Assay [2] has as its target T1, human EGFR on tumor cells. The assay is described as follows: cell-based or functional assay. The source holds these as a separate data set.
For assay [3], the target named is T2, human CD3 on T cells (human, UniProt P07766 23-207; P09693 23-182; P04234 22-171). The assay is described as follows: cell-based or functional assay.
T2 sequence (P07766 23-207, chain 1 of 3): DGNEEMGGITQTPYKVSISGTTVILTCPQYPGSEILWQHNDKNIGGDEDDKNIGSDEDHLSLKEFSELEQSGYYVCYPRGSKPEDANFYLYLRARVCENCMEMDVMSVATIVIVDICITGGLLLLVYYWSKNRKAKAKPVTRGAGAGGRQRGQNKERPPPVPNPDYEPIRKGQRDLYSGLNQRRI
T2 sequence (P09693 23-182, chain 2 of 3): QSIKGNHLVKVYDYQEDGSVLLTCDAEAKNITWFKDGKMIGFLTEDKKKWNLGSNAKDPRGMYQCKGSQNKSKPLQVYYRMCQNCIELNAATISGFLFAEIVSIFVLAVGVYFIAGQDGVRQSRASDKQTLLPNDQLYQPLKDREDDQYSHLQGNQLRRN
T2 sequence (P04234 22-171, chain 3 of 3): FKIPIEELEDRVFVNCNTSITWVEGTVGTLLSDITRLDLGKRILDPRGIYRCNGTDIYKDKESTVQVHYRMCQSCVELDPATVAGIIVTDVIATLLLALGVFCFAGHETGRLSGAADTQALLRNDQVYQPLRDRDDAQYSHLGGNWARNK
Assay [4] concerns the target T2, human CD3 on T cells. Description: cell-based or functional assay. This is another data set of the same source.
Assay [5] has as its target T1, human EGFR on tumor cells. Description: flow cytometry on HCT 116 tumor cells, detection with anti-DARPin antibodies. The protocol: (§1) The determination of CD3 binding was performed with human CD3 on Jurkat cells, and binding to hEGFR on cells with HCT116 tumor cells, using Flow Cytometer Attune Nxt. A titration of prodrug DARPin molecules was incubated with 200′000 cells per well (for both Jurkat and HCT116 cells) for 30 min at 4° C. After washing, CD3 binding of DARPin® molecule was detected by 1:1000-diluted anti-DARPin® Antibody-Mix (1 h incubation at 4° C.) with the corresponding secondary antibody anti-rabbit IgG Alexa Fluor 488 (30 min incubation at 4° C.), which was added after washing off excess anti-DARPin Antibodies. Cells were subsequently washed and stained for livedead (aqua, 1:1000, thermofisher) and resuspended in Cytofix fixation buffer (BD Biosciences). Median of mean fluorescence intensities of Alexa Fluor 488 binding on live cells were measured by Flow Cytometry and data was plotted using GraphPad Prism 8.

Assay [6] has as its target T2, human CD3 on T cells. Description: flow cytometry on Jurkat cells, detection with anti-DARPin antibodies. The protocol: as §1
(A flow cytometer gives signals particle by particle.)

For assay [7], the target named is T3, CD3-specific binding domain C7v14.
T3 construct: Used as analyte in SPR; also called hC22_88B02v14
T3 chain: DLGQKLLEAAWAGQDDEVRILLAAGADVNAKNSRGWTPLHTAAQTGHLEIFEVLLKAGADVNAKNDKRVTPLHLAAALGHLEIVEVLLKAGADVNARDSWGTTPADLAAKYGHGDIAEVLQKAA
Description: SPR (affinity cited in Example 9; CD3-binding domain taken as C7v14); high affinity Binder #1. An excerpt: (§2) An important feature of a binding moiety of the invention is its affinity towards a drug molecule. Relevant aspects include the off-rate of the binding moiety from the drug molecule and the resulting blocking half-life. Surface plasmon resonance (SPR) assays were used to determine the binding affinity of ankyrin repeat binding domains to the CD3 binding domain of a TCE drug molecule. AN SPR data was generated using a Bio-Rad ProteOn XPR36 instrument with PBS-T (0.005% Tween 20) as running buffer. A new neutravidin sensor chip (NLC) was air-initialized and conditioned according to Bio-Rad manual.

Assay [8] deals with T4, CD3-specific binding domain C7v122.
T4 construct: Used as analyte in SPR; also called hC22_88B02v122
T4 chain: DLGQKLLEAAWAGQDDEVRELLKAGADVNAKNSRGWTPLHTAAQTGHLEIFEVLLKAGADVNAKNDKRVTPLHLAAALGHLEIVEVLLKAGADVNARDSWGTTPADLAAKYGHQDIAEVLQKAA
The assay is described as follows: SPR (ProteOn XPR36), biotinylated Binder captured on NLC neutravidin chip as ligand, CD3-specific binding domain as analyte, PBS-T, 25 C; KD from kon/koff.
From the text: as §2

The target of assay [9] is T5, CD3-specific binding domain C7v127.
T5 construct: Used as analyte in SPR; also called hC22_88B02v127
T5 chain: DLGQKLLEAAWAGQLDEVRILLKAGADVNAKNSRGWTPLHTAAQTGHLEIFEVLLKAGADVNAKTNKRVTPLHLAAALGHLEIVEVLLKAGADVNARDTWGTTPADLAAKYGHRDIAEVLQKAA
The assay is described as above.
From the text: as §2

The target of assay [10] is T6, CD3-specific binding domain C7v118.
T6 construct: Used as analyte in SPR; also called hC22_88B02v118
T6 chain: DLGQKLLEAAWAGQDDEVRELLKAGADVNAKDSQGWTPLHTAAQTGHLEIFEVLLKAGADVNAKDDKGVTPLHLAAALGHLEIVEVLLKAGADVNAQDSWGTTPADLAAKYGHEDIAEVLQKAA
The assay is described as above.
From the text: as §2

Assay [11] concerns the target T7, CD3-specific binding domain C7v119.
T7 construct: Used as analyte in SPR; also called hC22_88B02v119
T7 chain: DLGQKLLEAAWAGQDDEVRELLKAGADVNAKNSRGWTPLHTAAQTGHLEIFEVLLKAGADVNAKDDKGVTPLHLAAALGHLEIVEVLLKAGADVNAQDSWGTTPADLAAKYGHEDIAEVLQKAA
Described as above.
From the text: as §2

The target of assay [12] is T3, CD3-specific binding domain C7v14. The assay is described as above.
From the text: as §2

The target of assay [13] is T5, CD3-specific binding domain C7v127. The assay is described as follows: SPR (ProteOn XPR36), biotinylated Binder on NLC chip, CD3-specific binding domain as analyte, 25 C.
From the text: as §2

For assay [14], the target named is T4, CD3-specific binding domain C7v122. Description: SPR (ProteOn XPR36), biotinylated Binder captured on NLC neutravidin chip as ligand, CD3-specific binding domain as analyte, PBS-T, 25 C; KD by equilibrium fitting.
From the text: as §2

In assay [15] the target is T5, CD3-specific binding domain C7v127. The description is as above.
From the text: as §2

In assay [16] the target is T6, CD3-specific binding domain C7v118. Described as above.
From the text: as §2

The target of assay [17] is T7, CD3-specific binding domain C7v119. Described as above.
From the text: as §2

In assay [18] the target is T3, CD3-specific binding domain C7v14. The description is as above.
From the text: as §2

For assay [19] the target is unchanged. Description: SPR (affinity cited in Example 9; CD3-binding domain taken as C7v14); lower affinity Binder #3.
From the text: as §2

Some results are limits rather than exact numbers.

B1: CD3-PDD NCL EGFR-C7v14-[NCL2]-06E05v05-6His (designed binder)
chain: MGSDLGYKLLRAAFHGQDDEVRILLAAGADVNAKDLIGQTPLHNAAWVGHLEIVEVLLKAGADVNAKDYYGNTPLHLAAHDGHLEIVEVLLKAGADVNAQDTWGETPADLATNAGHEDIAEVLQKAAGSPTPTPTTPTPTPTTPTPTPTGSDLGQKLLEAAWAGQDDEVRILLAAGADVNAKNSRGWTPLHTAAQTGHLEIFEVLLKAGADVNAKNDKRVTPLHLAAALGHLEIVEVLLKAGADVNARDSWGTTPADLAAKYGHGDIAEVLQKAASGPTPTPTTPTPTPTTPTPTPTGSDLGKKLLQAARAGQLDEVRELLKAGADVNAKDAKGLTPLHLAAYHGHLEIVEVLLKAGADVNAKDVYGWTPLHIAAASGHLEIVEVLLKAGADVNAKDALGWTPLHLAASHGHLEIVEVLLKAGADVNAQDKSGKTPADLAARAGHQDIAEVLQKAAGSHHHHHH
With B1, in [1], the “T-cell activation EC50 (CD25 on CD8+ T cells), EGFR+ HCT 116 tumor cells and pan T-cells” value turned out to be 0.0532 nM; the “T-cell activation EC50 (CD25 on CD8+ T cells), EGFR+++ A431 tumor cells and pan T-cells” value turned out to be 0.679 nM. The “masking window (EC50 difference between active TCE and CD3-PDD NCL), T-cell activation with A431 cells” value in assay [2] was approximately 200 fold.

B2: Active TCE EGFR-C7v119-6His (designed binder)
chain: MGSDLGYKLLRAAFHGQDDEVRILLAAGADVNAKDLIGQTPLHNAAWVGHLEIVEVLLKAGADVNAKDYYGNTPLHLAAHDGHLEIVEVLLKAGADVNAQDTWGETPADLATNAGHEDIAEVLQKAAGSPTPTPTTPTPTPTTPTPTPTGSDLGQKLLEAAWAGQDDEVRELLKAGADVNAKNSRGWTPLHTAAQTGHLEIFEVLLKAGADVNAKDDKGVTPLHLAAALGHLEIVEVLLKAGADVNAQDSWGTTPADLAAKYGHEDIAEVLQKAAGSHHHHHH
notes: Bispecific ankyrin repeat protein; also called active TCE (C7v119 comprising construct); anti-EGFR x anti-CD3
As for B2, the “tumor cell killing EC50 (LDH release), HCT 116 tumor cells and pan T-cells” value in the assay with human CD3 on T cells [3] was 0.0074 nM. Moreover, in the assay with human CD3 on T cells [4], the “T-cell activation EC50, HCT 116 tumor cells and pan T-cells” value was found to be 0.0108 nM; the “tumor cell killing EC50, HCT 116 tumor cells and pan T-cells” value was 0.0185 nM. Also, the concentration for a half-maximal effect (EC50) in assay [5] came to 0.427 nM. This molecule displayed a concentration for a half-maximal effect (EC50) with human CD3 on T cells [6] of more than 10 nM.

B3: Active TCE EGFR-C7v122-6His (designed binder)
chain: MGSDLGYKLLRAAFHGQDDEVRILLAAGADVNAKDLIGQTPLHNAAWVGHLEIVEVLLKAGADVNAKDYYGNTPLHLAAHDGHLEIVEVLLKAGADVNAQDTWGETPADLATNAGHEDIAEVLQKAAGSPTPTPTTPTPTPTTPTPTPTGSDLGQKLLEAAWAGQDDEVRELLKAGADVNAKNSRGWTPLHTAAQTGHLEIFEVLLKAGADVNAKNDKRVTPLHLAAALGHLEIVEVLLKAGADVNARDSWGTTPADLAAKYGHQDIAEVLQKAAGSHHHHHH
notes: Bispecific ankyrin repeat protein; also called active TCE (C7v122 comprising construct); anti-EGFR x anti-CD3
On to B3, for which the “tumor cell killing EC50 (LDH release), HCT 116 tumor cells and pan T-cells” value in the assay with human CD3 on T cells [3] is 0.0022 nM. Further, in the assay with human CD3 on T cells [4], the “T-cell activation EC50, HCT 116 tumor cells and pan T-cells” value amounted to 0.0068 nM; the “tumor cell killing EC50, HCT 116 tumor cells and pan T-cells” value was 0.0072 nM. In assay [5], the half-maximal effective concentration (EC50) came to 0.518 nM. This molecule also had a half-maximal effective concentration (EC50) with human CD3 on T cells [6] of 7.9 nM.

B4: Binder #1 (designed binder)
chain: MRGSHHHHHHGSDLGKKLLQAARAGQLDEVRELLKAGADVNAKDAKGLTPLHLAAYHGHLEIVEVLLKAGADVNAKDVYGWTPLHIAAASGHLEIVEVLLKAGADVNAKDWLGWTPLHLAASHGHLEIVEVLLKAGADVNAQDKSGKTPADLAARAGHQDIAEVLQKAA
modifications: biotinylated for SPR (site not stated)
notes: also called 06E05
B4: the dissociation constant (Kd) is less than 1 nM in [7]; 0.21 nM in assay [8]; 0.02 nM in assay [9]; 0.44 nM in assay [10]; 0.36 nM in assay [11]; 0.33 nM in [12].

B5: Binder #2 (designed binder)
chain: MRGSHHHHHHGSDLGKKLLQAARAGQLDEVRELLKAGADVNAKDAKGLTPLHLAAYHGHLEIVEVLLKAGADVNAKDVAGWTPLHIAAASGHLEIVEVLLKAGADVNAKDWLGWTPLHLAASHGHLEIVEVLLKAGADVNAQDKSGKTPADLAARAGHQDIAEVLQKAA
modifications: biotinylated for SPR (site not stated)
notes: N-terminal His-tag; also called 06E05v03
On to B5, for which the Kd turned out to be 92.4 nM in assay [8], 126 nM in [10], 141 nM in assay [11] and 114 nM in assay [12]. For the same molecule, the binding result in [13] is “binds”.

B6: Binder #3 (designed binder)
chain: MRGSHHHHHHGSDLGKKLLQAARAGQLDEVRELLKAGADVNAKDAKGLTPLHLAAYHGHLEIVEVLLKAGADVNAKDVYGWTPLHIAAASGHLEIVEVLLKAGADVNAKDALGWTPLHLAASHGHLEIVEVLLKAGADVNAQDKSGKTPADLAARAGHQDIAEVLQKAA
modifications: biotinylated for SPR (site not stated)
notes: N-terminal His-tag; also called 06E05v05
As for B6, the Kd in [14] is 149 nM; in [15], 53.4 nM; in [16], 683 nM; in [17] it was 336 nM; in assay [18], 189 nM; in assay [19], more than 100 nM.

B7: Binder #4 (designed binder)
chain: MRGSHHHHHHGSDLGKKLLQAARAGQLDEVRELLKAGADVNAKDAKGLTPLHLAAYHGHLEIVEVLLKAGADVNAKDVYGWTPLHIAAASGHLEIVEVLLKAGADVNAKDWLGWTPLHLAASAGHLEIVEVLLKAGADVNAQDKSGKTPADLAARAGHQDIAEVLQKAA
modifications: biotinylated for SPR (site not stated)
notes: N-terminal His-tag; also called 06E05v07
Take B7: the Kd was determined as 27.2 nM in assay [14], 41.4 nM in assay [16], 37.5 nM in assay [17] and 35.3 nM in assay [18]. In [13], the binding result is “binds”.

The term EC50 denotes the concentration giving half of the maximal effect. Lower therefore signals an effect from little substance. In general, Kd refers to a measure of binding affinity in units of concentration.
